In US20060270596A1 (CENTRE NATIONAL DE LA RECHERCHE SCIENTIFIQUE CNRS, published 2006):
Each block holds one binder with its values, some of them ahead of it.

B1: human THAP1 (THanatos-Associated-Protein-1), full length (other)
chain: MVQSCSAYGCKNRYDKDKPVSFHKFPLTRPSLCKEWEAAVRRKNFKPTKYSSICSEHFTPDCFKRECNNKLLKENAVPTIFLCTEPHDKKEDLLEPQEQLPPPPLPPPVSQVDAAIGLLMPPLQTPVNLSVFCDHNYTVEDTMHQRKRIHQLEQQVEKLRKKLKTAQQRCRRQERQLEKLKEVVHFQKEKDDVSERGYVILPNDYFEIVEVPA
notes: these tags are not written into the chain; also called hTHAP1; THAP1 wild type
B3: GST-Par4DD fusion protein (Par4 amino acids 250-342) (other)
chain: GFPRYNRDANVSGTLVSSSTLEKKIEDLEKEVVTERQENLRLVRLMQDKEEMIGKLKEEIDLLNRDLDDIEDENEQLKQENKTLLKVVGQLTR
notes: Expressed in E. coli, immobilized on glutathione sepharose; not shown: glutathione S-transferase encoded by vector pGEX-2T (Amersham Pharmacia Biotech)

Legend:
[1] = target: the molecule itself; experiment: yeast two-hybrid, THAP1 bait
[2] = target: T1, GST (glutathione S-transferase) control protein (UniProt P08515 1-218 = GST); experiment: GST pull-down, negative control: in vitro translated 35S-labelled protein on GST alone immobilised on glutathione sepharose, SDS-PAGE, fluorography
T1 construct: Negative control in GST pull-down assays; also called GST beads; GST alone
Description: To confirm the interaction observed in yeast, we performed in vitro GST pull down assays. Par4DD, expressed as a GST-tagged fusion protein and immobilized on glutathione sepharose, was incubated with radiolabeled in vitro translated THAP1. To generate the GST-Par4DD expression vector, Par4DD (amino acids 250-342) was amplified by PCR with primers Par4.10 (5′-[…]-3′) (SEQ ID NO: 194) and Par4.5, and cloned in frame downstream of the Glutathion S-Transferase ORF, into the BamHI site of the pGEX-2T prokaryotic expression vector (Amersham Pharmacia Biotech, Saclay, France). GST-Par4DD (amino acids 250-342) fusion protein encoded by plasmid pGEX-2T-Par4DD and control GST protein encoded by plasmid pGEX-2T, were then expressed in E. coli DH5α and purified by affinity chromatography with glutathione sepharose according to supplier's instructions (Amersham Pharmacia Biotech). The yield of proteins used in GST pull-down assays was determined by SDS-Polyarylamide Gel Electrophoresis (PAGE) and Coomassie blue staining analysis. In vitro-translated THAP1 was generated with the TNT-coupled reticulocyte lysate system (Promega, Madison, Wis., USA) using pGBKT7-THAP1 vector as template. […]

[3] = target: T2, Par4 deletion mutant lacking the leucine zipper/death domain (Par4Δ, amino acids 1-276) (human, UniProt Q96IZ0 1-274); experiment: yeast two-hybrid
T2 construct: Gal4 fusion in two-hybrid; also called Par4A; PAR4A
T2 sequence: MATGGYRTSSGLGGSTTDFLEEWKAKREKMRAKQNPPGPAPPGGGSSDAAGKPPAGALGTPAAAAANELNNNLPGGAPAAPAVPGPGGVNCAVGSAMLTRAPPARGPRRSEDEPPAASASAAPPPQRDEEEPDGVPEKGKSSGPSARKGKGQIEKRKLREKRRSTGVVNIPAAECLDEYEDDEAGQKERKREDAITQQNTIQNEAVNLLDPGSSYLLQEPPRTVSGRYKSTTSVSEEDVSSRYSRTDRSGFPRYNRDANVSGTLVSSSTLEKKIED

[4] = target: T3, human chemokine SLC/CCL21, mature form (amino acids 24-134) (human, UniProt O00585 24-134); experiment: yeast two-hybrid, SLC/CCL21 bait
T3 construct: GenBank NP-002980; Used as Gal4 fusion in two-hybrid and as 35S-labelled in vitro translation product in pull-downs; also called SLC/6Ckine; SLC/CCL21 wild type
T3 sequence: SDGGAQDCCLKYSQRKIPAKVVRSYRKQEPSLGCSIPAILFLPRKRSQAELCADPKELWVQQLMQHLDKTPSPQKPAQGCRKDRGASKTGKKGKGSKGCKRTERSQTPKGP

[5] = target: T4, Par4 leucine zipper/death domain (Par4DD, amino acids 250-342) (human, UniProt Q96IZ0 248-340); experiment: yeast two-hybrid and in vivo interaction assay
T4 construct: Gal4 fusion in two-hybrid; also called myc-Par4DD
T4 chain: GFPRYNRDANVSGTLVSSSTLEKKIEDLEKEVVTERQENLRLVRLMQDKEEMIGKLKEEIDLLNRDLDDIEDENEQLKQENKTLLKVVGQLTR

[6] = target: B3; experiment: GST pull-down
[7] = target: B1; experiment: yeast two-hybrid, THAP1 bait
[8] = target: T5, human prostate apoptosis response-4 (PAR4), full length (human, UniProt Q96IZ0 1-340, limits assumed); experiment: yeast two-hybrid, Par4 wt bait
T5 construct: Gal4-BD or Gal4-AD fusion in two-hybrid; also called Par4 wild type
T5 chain: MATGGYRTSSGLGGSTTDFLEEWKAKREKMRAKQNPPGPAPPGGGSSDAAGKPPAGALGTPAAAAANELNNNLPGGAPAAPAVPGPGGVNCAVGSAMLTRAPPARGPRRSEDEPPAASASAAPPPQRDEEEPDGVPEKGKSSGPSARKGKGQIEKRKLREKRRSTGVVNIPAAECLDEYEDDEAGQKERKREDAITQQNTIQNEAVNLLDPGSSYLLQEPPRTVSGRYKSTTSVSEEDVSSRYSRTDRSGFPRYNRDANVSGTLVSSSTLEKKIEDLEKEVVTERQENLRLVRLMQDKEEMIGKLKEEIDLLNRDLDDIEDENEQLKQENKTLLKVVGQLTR
Description: for mutant THAP1ΔQRCRR. The resulting PCR fragments were digested with EcoRI and BamHI, and cloned in frame downstream of the Gal4 Binding Domain (Gal4-BD) in pGBKT7 two-hybrid vector (Clontech) to generate pGBKT7-THAP1-RR/AA and -Δ(QRCRR), or downstream of the Enhanced Green Fluorescent Protein (EGFP)ORF in pEGFP.C2 vector (Clontech) to generate pEGFP.C2-THAP1-RR/AA and -Δ(QRCRR). THAP1RR/AA and THAP1ΔQRCRR THAP1 mutants were then tested in the three THAP1/Par4 interaction assays (two-hybrid assay, in vitro THAP1/Par4 interaction assay, in vivo THAP1/Par4 interaction assay) as described above for the THAP1-C1, -C2, -C3, -N1, -N2 or -N3 mutants.

[9] = target: T6, THAP1ΔQRCRR mutant (deletion of residues 168-172) (human, UniProt Q9NVV9 1-213); experiment: GST pull-down
T6 sequence: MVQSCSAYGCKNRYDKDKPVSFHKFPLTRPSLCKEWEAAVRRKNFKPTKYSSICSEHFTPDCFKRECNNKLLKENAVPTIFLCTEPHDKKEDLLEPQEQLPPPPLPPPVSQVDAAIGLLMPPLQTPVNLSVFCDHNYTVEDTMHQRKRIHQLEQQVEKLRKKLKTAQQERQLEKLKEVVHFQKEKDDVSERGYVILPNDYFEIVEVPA

[10] = target: T7, THAP1-N1 deletion mutant (amino acids 1-90) (human, UniProt Q9NVV9 1-90); experiment: GST pull-down: in vitro translated 35S-labelled protein on GST-Par4DD immobilised on glutathione sepharose, SDS-PAGE, fluorography
T7 construct: Gal4 fusion, in vitro translation product or GFP fusion according to assay; also called zinc finger domain of THAP1
T7 sequence: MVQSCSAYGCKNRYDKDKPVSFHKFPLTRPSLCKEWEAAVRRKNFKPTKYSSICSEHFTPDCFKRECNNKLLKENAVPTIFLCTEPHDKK
Description: (§1) THAP1 mutants were also tested in the in vitro THAP1/Par4 interaction assay. In vitro-translated THAP1 mutants were generated with the TNT-coupled reticulocyte lysate system (Promega, Madison, Wis., USA) using pGBKT7-THAP1-C1, -C2, -C3, -N1, -N2 or -N3 vector as template. 25 μl of each ³⁵S-labelled THAP1 mutant was incubated with immobilized GST or GST-Par4 protein overnight at 4° C., in the following binding buffer: 10 mM NaPO4 pH 8.0, 140 mM NaCl, 3 mM MgCl2, 1 mM dithiothreitol (DTT), 0.05% NP40, and 0.2 mM phenylmethyl sulphonyl fluoride (PMSF), 1 mM Na Vanadate, 50 mM β Glycerophosphate, 25 μg/ml chimotrypsine, 5 μg/ml aprotinin, 10 μg/ml Leupeptin. Beads were then washed 5 times in 1 ml binding buffer. Bound proteins were eluted with 2× Laemmli SDS-PAGE sample buffer, fractionated by 10% SDS-PAGE and visualized by fluorography using Amplify (Amersham Pharmacia Biotech). As expected, THAP1-C1, -C2, -C3, -and -N3 interacted with GST/Par4DD (FIG. 4B).

[11] = target: T8, THAP1-N2 deletion mutant (amino acids 1-166) (human, UniProt Q9NVV9 1-166); experiment: as above
T8 construct: Gal4 fusion, in vitro translation product or GFP fusion according to assay
T8 sequence: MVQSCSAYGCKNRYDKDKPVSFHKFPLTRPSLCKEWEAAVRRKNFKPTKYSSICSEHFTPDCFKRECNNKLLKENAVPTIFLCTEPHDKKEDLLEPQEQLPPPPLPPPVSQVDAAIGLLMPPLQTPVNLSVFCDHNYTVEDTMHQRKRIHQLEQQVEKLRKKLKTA
Description: as §1

T1 sequence (P08515 whole entry): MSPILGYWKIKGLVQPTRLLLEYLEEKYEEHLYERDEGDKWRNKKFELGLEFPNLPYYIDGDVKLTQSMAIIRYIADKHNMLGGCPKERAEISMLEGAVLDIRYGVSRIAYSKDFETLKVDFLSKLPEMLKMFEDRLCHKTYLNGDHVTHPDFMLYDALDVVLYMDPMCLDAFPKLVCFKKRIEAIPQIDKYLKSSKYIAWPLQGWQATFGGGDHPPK

Binder: B1
binding result [1]: binds | binding result [2]: no binding | binding result [3]: no binding

binding result [4]: binds | binding result [6]: no binding | binding result [7]: binds | binding result [8]: no binding
B2: THAP1 RR/AA mutant (R171A, R172A) (other)
chain: MVQSCSAYGCKNRYDKDKPVSFHKFPLTRPSLCKEWEAAVRRKNFKPTKYSSICSEHFTPDCFKRECNNKLLKENAVPTIFLCTEPHDKKEDLLEPQEQLPPPPLPPPVSQVDAAIGLLMPPLQTPVNLSVFCDHNYTVEDTMHQRKRIHQLEQQVEKLRKKLKTAQQRCAAQERQLEKLKEVVHFQKEKDDVSERGYVILPNDYFEIVEVPA
notes: Gal4-BD fusion, in vitro translation product or GFP fusion according to assay; also called THAP RR/AA
binding result [5]: no binding

Binder: B3
binding result [9]: no binding | binding result [10]: no binding | binding result [11]: no binding
